In the RNAGym collection of RNA variant scans (doi:10.7554/elife.80360):

B1: HDV Ribozyme (parent)
chain: GGCCGGCAUGGUCCCAGCCUCCUCGCUGGCGCCGGCUGGGCAACAUUCCGAGGGGACCGUCCCCUCGGUAAUGGCGAAUGGGACCCA

Variants of: B1
Assay: self-cleavage, relative activity (ratio to wild type); higher = more cleavage; co-transcriptional

Variant	self-cleavage
C3U G29U	0.0723
C3U G40U	0.594
C3U G40A	0.857
C3U C64U	0.954
C3U C18U	0.43
C3U C18A	0.0782
C3G G67C	0.524
C3G G67A	0.682
C4A U12A	0.0712
C4A U12G	0.0536
C4A U12C	0.095
C4A G54U	0.32
C4A G54C	0.284
C4A G54A	0.268
C4A C7U	0.0519
C4A C7G	0.104
C3G G35U	1.33
C3U C19U	0.126
C3U C19G	0.0171
C3G U9G	0.789
C3G U9A	0.799
C4A G76U	0.554
C4A G76A	0.208
C4A G76C	0.253

Variant	self-cleavage
C3G G25C	0.0292
C3G G25A	0.0511
C3U G82C	0.0779
C4A C75G	0.0396
C4A A71C	0.156
C4A C15G	0.166
C4A C15U	0.0378
C3U C21U	0.101
C3U C21A	0.122
C3G C41G	0.241
C3G G6U	0.0665
C3U C44A	0.492
C4A C63A	0.354
C4A A83C	0.232
C4A A83G	0.234
C4A A83U	0.0959
C3U C86G	0.848
C4A C58G	0.259
C4A C58U	0.424
C4A C18G	0.166
C4A C18A	0.0277
C4A G5A	0.13
C4A C49A	0.424
C4A C49U	0.282

Variant	self-cleavage
C3G C85A	0.858
C3G C85U	0.751
C3U A77C	0.0639
C4A C84A	0.192
C4A C84G	0.138
C3G C30U	0.156
C3U C26G	0.989
C3G G29C	0.0396
C4A G29A	0.0244
C3G G31C	0.0455
C3G G31A	0.0608
C4A G74U	0.0583
C3G C33U	0.194
C3G C33A	0.0817
C3G C33G	0.128
C4A C33A	0
C4A C14G	0.175
C3U G31A	0.329
C3G G82C	0.0923
C4A A77C	0.0462
C3G C62G	0.169
C3G C62A	0.789
C3U U9G	0.942
C3U U9C	0.95

Variant	self-cleavage
C4A U47A	0.156
C4A U47C	0.293
C4A C30A	0.0519
C3U U27G	0.723
C3U U27C	0.262
C3G G39C	0.157
C3G G39A	0.0594
C4A G68A	0.196
C4A G68C	0.115
C3G G50A	0.589
C4A C57A	0.541
C4A C57U	0.237
C3U A83C	0.318
C3U A83G	0.554
C4A C19A	0.0386
C3U C84A	0.665
C3U C84G	0.636
C3U C4U	0.655
C3U C4G	0
C3G C32A	0
C3G C32U	0.198
C3G C32G	0.0282
C4A G50U	0.372
C3U C61U	0.923

Variant	self-cleavage
C3G C44G	0.0707
C3U C13A	0.138
C3U C22A	0.161
C3U C22G	0.0193
C3G C24U	0.196
C3G C24A	0
C3G C24G	0.102
C3U A78C	0.04
C3G U79G	0.262
C3G U79C	0.182
C3G A87C	0.861
C3G C4A	0.0767
C3G C4G	1
C3G C15U	0.532
C3U A87U	0.725
C3U C7G	0
C3U C7A	0.205
C4A C32U	0.0489
C4A C32G	0
C3G C21A	0
C3G C21G	0
C4A C26G	0.348
C4A C86U	0.284
C3U C58G	0.767

Variant	self-cleavage
C3U C58A	0.818
C3U A70C	0.566
C3G G10A	0.107
C4A C66A	0.177
C3U G28A	0.0294
C3U A56G	0.831
C3G U72A	0.237
C3G U72C	0.267
C3U A43G	0.342
C3U A43C	0.293
C3U A43U	0.496
C4A A56C	0.287
C4A A56U	0.321
C4A A56G	0.217
C3U G73C	0.304
C3G G17A	0.102
C3G G17U	0.073
C3G G34U	0.323
C4A G53U	0.174
C4A G53C	0.344
C4A G53A	0.201
C3G C66A	0.585
C3U U12A	0.0817
C3U U12G	0.429

Variant	self-cleavage
C4A G82C	0.0396
C4A A45U	0.095
C3G G5C	1.5
C3G G5A	0.18
C4A G17A	0.0396
C4A G17U	0.0292
C3G U27C	0.133
C3U C57G	0.803
C4A A51C	0.277
C3U C14A	0.594
C4A C24A	0.0475
C4A G28A	0.0489
C4A G28U	0.0692
C4A U60C	0.344
C4A U60A	0.284
C4A U60G	0.0449
C3G G76A	0.984
C3G G76C	0.65
C3G G76U	0.926
C3G C75G	0.0496
C3U C32A	0.053
C3U C32G	0.0769
C3G U47A	0.594
C3G U47G	0.457

Variant	self-cleavage
C3G U47C	0.54
C3G C36A	0.0288
C3G C36U	0.155
C3U G67C	0.772
C3G U23G	0.0791
C3G U23A	0.929
C4A A16U	0.0665
C3U G52A	0.896
C3U G52U	0.723
C3G C13G	0.0504
C3G C13A	0.0545
C3U A71U	0.742
C3U A71C	0.427
C3G C58G	0.796
C3U G76U	0.973
C3U G38U	0.111
C3U G38A	0.0811
C3U G38C	0.122
C3U C62A	0.973
C3U C62U	0.762
C4A G39A	0.119
C4A G39C	0
C3G A78U	0.125
C3U G54A	0.633

Variant	self-cleavage
C3U G54C	0.636
C3G C26G	0.753
C3G A71C	0.261
C4A U20C	0.214
C3U G5A	0.123
C4A G35A	0.0733
C4A G40U	0.199
C4A G40A	0.214
C4A A42U	0.0997
C4A A42C	0.0332
C3U C63U	0.645
C3G C22G	0
C3G C22U	0.179
C3G C22A	0.119
C3G C57G	0.891
C3G C57U	0.75
C4A G34C	0.261
C4A G34A	0.284
C3U C85G	0.87
C3U G17A	0.361
C3U G68U	0.866
C3U G68A	0.831
C3U G68C	0.781
C3G G59A	0.831

Variant	self-cleavage
C3G G59U	0.899
C4A G38A	0.133
C4A G6C	0.0594
C3G C61G	0.561
C3U G10U	0.372
C3U G10C	0.762
C3U C33U	0.769
C3U U46A	0.628
C3U U46G	0.446
C3U U46C	0.567
C3U U72A	0.684
C3G A77U	0.0297
C3G A77G	0.237
C3G C63G	0.307
C3G C63U	0.589
C3G C63A	0.575
C3U G50A	0.682
C4A U9C	0.268
C3U C41A	0.807
C3U C41G	0.499
C3G A70U	0.636
C3G A70G	0.475
C4A G10U	0.0733
C4A C36G	0.0875

Variant	self-cleavage
C4A C36A	0.0314
C3U C15U	0.562
C3G G52A	0.702
C3G C19U	0.158
C3G C19G	0.0326
C4A U37G	0
C4A G59A	0.346
C4A G59C	0.302
C3G C18A	0.0542
C3G C18G	0.0475
C3G C18U	0.04
C3U U65C	0.78
C3U U65A	0.872
C3U C36U	0.356
C3U C36G	0.0519
C3G U12G	0.32
C3G U12A	0.0462
C4A C21A	0
C4A C21U	0.0346
C3U A51G	0.577
C3G G68A	0.51
C4A C64U	0.277
C3G C64U	0.726
C3G C64G	0.546

Variant	self-cleavage
C3G C64A	0.528
C3U	0.802
C4A G25C	0.181
C3G A83C	0.191
C4A G55C	0.31
C4A G55A	0.3
C3U G81C	0.0563
C3U G81U	0.187
C3U A16C	0.437
C3G U46A	0.253
C3G U46C	0.373
C3U G80A	0.175
C3U G80U	0.114
C3U G80C	0.159
C3U G59A	0.925
C3U G59U	0.943
C3U G59C	0.688
C3G G40C	0.339
C3G G40A	0.575
C3U C48A	0.675
C3U C48G	0.641
C4A A78G	0.147
C4A C44A	0.148
C4A C13U	0.0739

Variant	self-cleavage
C3U U20A	0.0308
C3G C14U	0.817
C3G C14G	0.268
C4A C41G	0.0519
C4A C41U	0.163
C4A A43C	0
C3G C86A	0.876
C3G C86G	1.14
C3U G34U	0.141
C3G C49U	0.673
C3G C49A	0.736
C4A A70C	0.136
C3G C7A	0.0213
C3U A8U	0.656
C3U A8G	0.554
C3G G73A	0.211
C3G G73U	0.0583
C4A G31U	0
C3G G54A	0.683
C3G G54C	0.674
C3G G28U	0.0357
C3G G28A	0.0326
C4A G73U	0
C3G U37A	0

Variant	self-cleavage
C3G U37G	0.123
C3G U65G	0.751
C3G U65A	0.648
C4A C48G	0.148
C3U U60C	0.943
C3U U79G	0.489
C3U U79C	0.342
C3G C48A	0.698
C3G C48G	0.695
C3G C48U	0.736
C3G G80U	0.0801
C3G U69A	0.582
C3U U69A	0.831
C4A U23C	0.0978
C4A U23A	0.309
C3U C49A	0.843
C3U C49G	0.68
C3U G55A	0.763
C3G C84G	0.41
C3G C84U	0.736
C3U U37G	0.0639
C3G G38U	0.166
